Test results from US20220282268A1.

Biological target: Hybrid Rubisco of A. thaliana S2Cr lines (1a3b mutant complemented with S2Cr) (Arabidopsis thaliana; Chlamydomonas reinhardtii) (UniProt O03042)
Experiment: cell-based or functional assay

share of Rubisco in the pelleted condensate that contained C. reinhardtii SSU (Coomassie-stained gel): 82%
share of Rubisco localized to the condensate (immunogold TEM, polyclonal Rubisco antibody): 54%
share of the C. reinhardtii SSU localized to the condensate (immunogold TEM, anti-CrRbcS2): 81%
Substance: EPYC1-dGFP (truncated mature EPYC1 expressed from two cassettes as EPYC1::eGFP and EPYC1::tGFP)
